Results on 1 molecule are retold here after publication PMC7531186 (Journal of the American Chemical Society, 2020).

Experiment [1] concerns the target T1, SPOP ΔBACK^28–337 (UniProt O43791 28-337). Nature of the experiment: fluorescence polarisation.
Experiment [2] addresses T1, SPOP ΔBACK^28–337. In words: fluorescence polarisation. The source holds these as a separate data set. (In fluorescence polarisation assays a small probe gives low polarisation when free and higher when bound to something large.)

Like-named read-outs stand apart in the source and are kept apart here.

T1 sequence (O43791 28-337, stated change not applied): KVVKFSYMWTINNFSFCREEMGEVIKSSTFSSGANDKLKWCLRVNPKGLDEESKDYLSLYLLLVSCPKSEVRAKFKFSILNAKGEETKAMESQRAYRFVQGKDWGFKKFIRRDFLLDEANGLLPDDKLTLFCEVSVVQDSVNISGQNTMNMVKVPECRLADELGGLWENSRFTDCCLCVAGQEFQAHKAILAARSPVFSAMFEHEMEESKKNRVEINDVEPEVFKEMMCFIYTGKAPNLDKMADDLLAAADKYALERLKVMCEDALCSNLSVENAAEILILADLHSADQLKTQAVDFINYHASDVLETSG

B1: rhodamine-labeled His-cDAXX^495–740 (domain or fragment, UniProt Q9UER7 495-740, looked up)
chain: SPMSSLQISNEKNLEPGKQISRSSGEQQNKGRIVSPSLLSEEPLAPSSIDAESNGEQPEELTLEEESPVSQLFELEIEALPLDTPSSVETDISSSRKQSEEPFTTVLENGAGMVSSTSFNGGVSPHNWGDSGPPCKKSRKEKKQTGSGPLGNSYVERQRSVHEKNGKKICTLPSPPSPLASLAPVADSSTRVDSPSHGLVTSSLCIPSPARLSQTPHSQPPRPGTCKTSVATQCDPEEIIVLSDSD
modifications: labeled with Rhodamine Red C2 maleimide
With B1, the Kd in experiment [1] amounted to 17 µM; in experiment [2] it was 10 µM.

Usually Kd stands for the constant that tells how readily two partners part at equilibrium. Lower therefore signals higher affinity.
